The sequences below were run on Escherichia coli TOP10 (assay: shrunken log2 fold change of peptide-encoding DNA abundance (4.5 h post-induction vs induction); higher = less antimicrobial activity (less host growth inhibition)). Settings: time post-induction: 4.5 h; library: site-saturation at positions 5, 18, 19, 20.
For RRIRMRPPRLPRPRPRPECCPRP, the “shrunken log2 fold change” value was 3.54. RRIRNRPPRLPRPRPRPNIAPRP was tested, and the “shrunken log2 fold change” value was -0.352. For RRIRQRPPRLPRPRPRPHQAPRP, the “shrunken log2 fold change” value was -0.241. For RRIRCRPPRLPRPRPRPNGWPRP, the “shrunken log2 fold change” value was -0.183. In the case of RRIRMRPPRLPRPRPRPRKKPRP, the “shrunken log2 fold change” value is reported as 1.43. RRIRTRPPRLPRPRPRPFYDPRP was tested, and the “shrunken log2 fold change” value was -0.382. In the case of RRIRLRPPRLPRPRPRPKAGPRP, the “shrunken log2 fold change” value is reported as 0.221. With RRIRGRPPRLPRPRPRPTRDPRP the “shrunken log2 fold change” value was 0.965. For RRIRSRPPRLPRPRPRPRVIPRP, the “shrunken log2 fold change” value was 0.017. In the case of RRIRVRPPRLPRPRPRPFGRPRP, the “shrunken log2 fold change” value is reported as 0.0302. In the case of RRIRNRPPRLPRPRPRPMQSPRP, the “shrunken log2 fold change” value is reported as -0.0939. RRIRYRPPRLPRPRPRPPRCPRP was tested, and the “shrunken log2 fold change” value was -0.0545. In the case of RRIRWRPPRLPRPRPRPMSPPRP, the “shrunken log2 fold change” value is reported as 0.000834. In the case of RRIRKRPPRLPRPRPRPSPFPRP, the “shrunken log2 fold change” value is reported as 0.0443. For RRIRLRPPRLPRPRPRPRDIPRP, the “shrunken log2 fold change” value was -0.54. For RRIRTRPPRLPRPRPRPWSMPRP, the “shrunken log2 fold change” value was -0.36. RRIRSRPPRLPRPRPRPAWGPRP was tested, and the “shrunken log2 fold change” value was 0.51. In the case of RRIRERPPRLPRPRPRPKFDPRP, the “shrunken log2 fold change” value is reported as 0.154. For RRIRARPPRLPRPRPRPFVEPRP, the “shrunken log2 fold change” value was 0.108. For RRIRSRPPRLPRPRPRPRDIPRP, the “shrunken log2 fold change” value was -0.248. For RRIRYRPPRLPRPRPRPQYNPRP, the “shrunken log2 fold change” value was -1.49. For RRIRWRPPRLPRPRPRPERSPRP, the “shrunken log2 fold change” value was 0.317. In the case of RRIRMRPPRLPRPRPRPLCHPRP, the “shrunken log2 fold change” value is reported as 0.061. With RRIRMRPPRLPRPRPRPQWWPRP the “shrunken log2 fold change” value was 0.245. RRIRNRPPRLPRPRPRPLRFPRP was tested, and the “shrunken log2 fold change” value was 0.426. For RRIRCRPPRLPRPRPRPKPYPRP, the “shrunken log2 fold change” value was 0.179. With RRIRVRPPRLPRPRPRPTGSPRP the “shrunken log2 fold change” value was -0.133. RRIRARPPRLPRPRPRPHFIPRP was tested, and the “shrunken log2 fold change” value was 0.179. RRIRPRPPRLPRPRPRPTDSPRP was tested, and the “shrunken log2 fold change” value was -0.245. RRIRDRPPRLPRPRPRPQHVPRP was tested, and the “shrunken log2 fold change” value was 0.0427. For RRIRMRPPRLPRPRPRPLIQPRP, the “shrunken log2 fold change” value was 0.00597. For RRIRVRPPRLPRPRPRPFNSPRP, the “shrunken log2 fold change” value was -0.00973. RRIRMRPPRLPRPRPRPLKHPRP was tested, and the “shrunken log2 fold change” value was -0.0893. In the case of RRIRARPPRLPRPRPRPYRFPRP, the “shrunken log2 fold change” value is reported as 0.0859. With RRIRCRPPRLPRPRPRPEHEPRP the “shrunken log2 fold change” value was 0.188. RRIRARPPRLPRPRPRPFILPRP was tested, and the “shrunken log2 fold change” value was -0.39. RRIRYRPPRLPRPRPRPPNGPRP was tested, and the “shrunken log2 fold change” value was 3.11. RRIRERPPRLPRPRPRPAANPRP was tested, and the “shrunken log2 fold change” value was 0.0774. In the case of RRIRIRPPRLPRPRPRPWDWPRP, the “shrunken log2 fold change” value is reported as 0.0472. For RRIRFRPPRLPRPRPRPGSKPRP, the “shrunken log2 fold change” value was -0.43. For RRIRTRPPRLPRPRPRPIADPRP, the “shrunken log2 fold change” value was -0.0123. With RRIRWRPPRLPRPRPRPCGMPRP the “shrunken log2 fold change” value was 0.259. With RRIRERPPRLPRPRPRPPEGPRP the “shrunken log2 fold change” value was 0.233. In the case of RRIRERPPRLPRPRPRPIFRPRP, the “shrunken log2 fold change” value is reported as -0.00741. With RRIRVRPPRLPRPRPRPESTPRP the “shrunken log2 fold change” value was 0.108. With RRIRWRPPRLPRPRPRPEENPRP the “shrunken log2 fold change” value was -0.0122. With RRIRSRPPRLPRPRPRPDLWPRP the “shrunken log2 fold change” value was 0.349. RRIRQRPPRLPRPRPRPRTFPRP was tested, and the “shrunken log2 fold change” value was -0.471. For RRIRTRPPRLPRPRPRPLKIPRP, the “shrunken log2 fold change” value was 0.0669. RRIRHRPPRLPRPRPRPKYEPRP was tested, and the “shrunken log2 fold change” value was -0.255. RRIRYRPPRLPRPRPRPLPYPRP was tested, and the “shrunken log2 fold change” value was -0.156. In the case of RRIRQRPPRLPRPRPRPDHWPRP, the “shrunken log2 fold change” value is reported as -0.368. RRIRLRPPRLPRPRPRPSNWPRP was tested, and the “shrunken log2 fold change” value was -0.196. In the case of RRIRGRPPRLPRPRPRPMWEPRP, the “shrunken log2 fold change” value is reported as 1.3. For RRIRFRPPRLPRPRPRPLTFPRP, the “shrunken log2 fold change” value was -0.391. In the case of RRIRGRPPRLPRPRPRPGLWPRP, the “shrunken log2 fold change” value is reported as 1.03. In the case of RRIRLRPPRLPRPRPRPYVFPRP, the “shrunken log2 fold change” value is reported as -0.515. In the case of RRIRIRPPRLPRPRPRPMFTPRP, the “shrunken log2 fold change” value is reported as -0.212. RRIRIRPPRLPRPRPRPSVRPRP was tested, and the “shrunken log2 fold change” value was -0.238. In the case of RRIRPRPPRLPRPRPRPLVIPRP, the “shrunken log2 fold change” value is reported as -0.509. In the case of RRIRQRPPRLPRPRPRPMVPPRP, the “shrunken log2 fold change” value is reported as -0.0191. With RRIRWRPPRLPRPRPRPLFFPRP the “shrunken log2 fold change” value was -0.00386. RRIRQRPPRLPRPRPRPYPAPRP was tested, and the “shrunken log2 fold change” value was -0.289. For RRIRCRPPRLPRPRPRPDNQPRP, the “shrunken log2 fold change” value was -0.696. For RRIRNRPPRLPRPRPRPHHNPRP, the “shrunken log2 fold change” value was -0.869. In the case of RRIRSRPPRLPRPRPRPNKCPRP, the “shrunken log2 fold change” value is reported as -0.42. With RRIRQRPPRLPRPRPRPISLPRP the “shrunken log2 fold change” value was -0.527. RRIRHRPPRLPRPRPRPLYFPRP was tested, and the “shrunken log2 fold change” value was -0.816. RRIRVRPPRLPRPRPRPPNGPRP was tested, and the “shrunken log2 fold change” value was 0.0958. With RRIRTRPPRLPRPRPRPQFQPRP the “shrunken log2 fold change” value was 0.183. RRIRYRPPRLPRPRPRPNKMPRP was tested, and the “shrunken log2 fold change” value was -1.19. For RRIRNRPPRLPRPRPRPSWSPRP, the “shrunken log2 fold change” value was -0.0724. RRIRHRPPRLPRPRPRPSPQPRP was tested, and the “shrunken log2 fold change” value was -0.358. With RRIRTRPPRLPRPRPRPVPYPRP the “shrunken log2 fold change” value was -0.0764. With RRIRIRPPRLPRPRPRPNMLPRP the “shrunken log2 fold change” value was -1.18.
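Also: peptides expressed intracellularly from a pBAD plasmid library in pooled LB shake-flask culture, induced with 0.3% L-arabinose, DNA abundance read by NGS, three biological replicates, DESeq2 with apeglm shrinkage.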
